Reference: paper PMC4847776, “Mutagenesis of mNeptune Red-Shifts Emission Spectrum to 681-685 nm” (PLoS ONE, 2016)
Blank lines part the entries; values can stand above or below the molecule they belong to.

Legend:
Experiment in all cases: SEC; Superdex 200 10/300 GL column, PBS (pH 7.4), protein approximate 3–4 mg/ml; elution volume compared with mNeptune (monomer standard) and eqFP670 (dimer standard)
mNeptune681_Q159Y = molecular target: mNeptune681_Q159Y
eqFP670 = molecular target: eqFP670
mNeptune681_Q159F = molecular target: mNeptune681_Q159F
mNeptune681_Q159C = molecular target: T1, mNeptune681_Q159C; conditions: both partners purified
T1 chain: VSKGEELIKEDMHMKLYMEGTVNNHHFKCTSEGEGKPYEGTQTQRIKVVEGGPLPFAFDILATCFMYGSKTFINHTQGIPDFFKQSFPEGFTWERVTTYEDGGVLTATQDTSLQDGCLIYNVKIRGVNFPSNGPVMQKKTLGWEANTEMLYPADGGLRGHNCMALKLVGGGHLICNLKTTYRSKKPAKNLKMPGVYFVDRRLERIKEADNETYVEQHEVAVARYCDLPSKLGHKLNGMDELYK

mNeptune681_Q159V = molecular target: T2, mNeptune681_Q159V; conditions: both partners purified
T2 chain: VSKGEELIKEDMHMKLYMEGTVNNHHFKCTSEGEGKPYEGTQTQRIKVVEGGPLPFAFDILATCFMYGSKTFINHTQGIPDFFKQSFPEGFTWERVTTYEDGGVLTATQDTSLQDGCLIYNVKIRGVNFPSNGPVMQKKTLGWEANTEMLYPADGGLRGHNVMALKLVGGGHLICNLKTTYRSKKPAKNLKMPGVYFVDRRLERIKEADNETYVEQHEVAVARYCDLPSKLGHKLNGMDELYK

mNeptune681_Q159L = molecular target: T3, mNeptune681_Q159L; conditions: both partners purified
T3 chain: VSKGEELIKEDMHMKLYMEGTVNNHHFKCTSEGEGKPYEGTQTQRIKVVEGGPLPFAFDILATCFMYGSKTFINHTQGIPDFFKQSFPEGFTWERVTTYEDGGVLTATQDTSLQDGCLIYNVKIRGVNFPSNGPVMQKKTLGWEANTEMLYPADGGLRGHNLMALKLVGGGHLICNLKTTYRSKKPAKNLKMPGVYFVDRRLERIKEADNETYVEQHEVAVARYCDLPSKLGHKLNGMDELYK

mNeptune681_Q159T = molecular target: T4, mNeptune681_Q159T; conditions: both partners purified
T4 chain: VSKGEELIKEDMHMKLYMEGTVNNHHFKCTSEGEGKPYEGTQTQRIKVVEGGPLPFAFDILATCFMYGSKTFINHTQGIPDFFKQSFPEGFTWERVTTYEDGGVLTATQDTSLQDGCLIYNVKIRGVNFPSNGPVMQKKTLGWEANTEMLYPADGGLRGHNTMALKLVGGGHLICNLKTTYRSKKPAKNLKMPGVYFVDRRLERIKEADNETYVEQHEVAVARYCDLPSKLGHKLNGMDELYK

mNeptune681_Q159M = molecular target: T5, mNeptune681_Q159M; conditions: both partners purified
T5 chain: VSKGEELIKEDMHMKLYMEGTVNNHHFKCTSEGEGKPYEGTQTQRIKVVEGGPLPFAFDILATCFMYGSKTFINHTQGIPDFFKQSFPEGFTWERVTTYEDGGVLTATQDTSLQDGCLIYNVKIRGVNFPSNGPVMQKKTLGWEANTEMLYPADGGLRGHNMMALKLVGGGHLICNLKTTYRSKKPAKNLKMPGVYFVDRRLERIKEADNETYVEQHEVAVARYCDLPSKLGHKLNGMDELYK

mNeptune681_Q159W = molecular target: T6, mNeptune681_Q159W; conditions: both partners purified
T6 chain: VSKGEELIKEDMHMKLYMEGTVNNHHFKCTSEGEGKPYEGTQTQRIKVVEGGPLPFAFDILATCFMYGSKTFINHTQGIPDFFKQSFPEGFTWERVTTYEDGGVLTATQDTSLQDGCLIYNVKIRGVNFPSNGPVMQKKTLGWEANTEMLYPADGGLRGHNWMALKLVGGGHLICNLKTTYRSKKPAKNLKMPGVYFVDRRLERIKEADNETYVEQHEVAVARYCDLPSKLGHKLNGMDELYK

mNeptune681_Q159I = molecular target: T7, mNeptune681_Q159I; conditions: both partners purified
T7 chain: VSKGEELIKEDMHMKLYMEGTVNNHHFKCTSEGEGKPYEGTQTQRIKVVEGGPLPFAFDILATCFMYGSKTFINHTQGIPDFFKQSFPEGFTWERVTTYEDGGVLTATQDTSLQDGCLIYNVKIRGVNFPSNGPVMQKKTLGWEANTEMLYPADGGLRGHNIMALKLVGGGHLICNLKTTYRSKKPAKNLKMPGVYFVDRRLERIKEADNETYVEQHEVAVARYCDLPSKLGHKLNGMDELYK

stoichiometry N (mNeptune681_Q159Y): 2
Molecule: mNeptune681_Q159Y

stoichiometry N (mNeptune681_Q159V): 2
B2: mNeptune681_Q159V (other)
chain: VSKGEELIKEDMHMKLYMEGTVNNHHFKCTSEGEGKPYEGTQTQRIKVVEGGPLPFAFDILATCFMYGSKTFINHTQGIPDFFKQSFPEGFTWERVTTYEDGGVLTATQDTSLQDGCLIYNVKIRGVNFPSNGPVMQKKTLGWEANTEMLYPADGGLRGHNVMALKLVGGGHLICNLKTTYRSKKPAKNLKMPGVYFVDRRLERIKEADNETYVEQHEVAVARYCDLPSKLGHKLNGMDELYK
modifications: autocatalytic Met-Tyr-Gly chromophore / autocatalytic Met-Tyr-Gly chromophore

stoichiometry N (mNeptune681_Q159T): 2
B4: mNeptune681_Q159T (other)
chain: VSKGEELIKEDMHMKLYMEGTVNNHHFKCTSEGEGKPYEGTQTQRIKVVEGGPLPFAFDILATCFMYGSKTFINHTQGIPDFFKQSFPEGFTWERVTTYEDGGVLTATQDTSLQDGCLIYNVKIRGVNFPSNGPVMQKKTLGWEANTEMLYPADGGLRGHNTMALKLVGGGHLICNLKTTYRSKKPAKNLKMPGVYFVDRRLERIKEADNETYVEQHEVAVARYCDLPSKLGHKLNGMDELYK
modifications: autocatalytic Met-Tyr-Gly chromophore / autocatalytic Met-Tyr-Gly chromophore

stoichiometry N (mNeptune681_Q159W): 2
B6: mNeptune681_Q159W (other)
chain: VSKGEELIKEDMHMKLYMEGTVNNHHFKCTSEGEGKPYEGTQTQRIKVVEGGPLPFAFDILATCFMYGSKTFINHTQGIPDFFKQSFPEGFTWERVTTYEDGGVLTATQDTSLQDGCLIYNVKIRGVNFPSNGPVMQKKTLGWEANTEMLYPADGGLRGHNWMALKLVGGGHLICNLKTTYRSKKPAKNLKMPGVYFVDRRLERIKEADNETYVEQHEVAVARYCDLPSKLGHKLNGMDELYK
modifications: autocatalytic Met-Tyr-Gly chromophore / autocatalytic Met-Tyr-Gly chromophore

Further lines, the molecule ahead of its results:

Molecule: eqFP670
stoichiometry N (eqFP670): 2

Molecule: mNeptune681_Q159F
stoichiometry N (mNeptune681_Q159F): 2

B1: mNeptune681_Q159C (other)
chain: VSKGEELIKEDMHMKLYMEGTVNNHHFKCTSEGEGKPYEGTQTQRIKVVEGGPLPFAFDILATCFMYGSKTFINHTQGIPDFFKQSFPEGFTWERVTTYEDGGVLTATQDTSLQDGCLIYNVKIRGVNFPSNGPVMQKKTLGWEANTEMLYPADGGLRGHNCMALKLVGGGHLICNLKTTYRSKKPAKNLKMPGVYFVDRRLERIKEADNETYVEQHEVAVARYCDLPSKLGHKLNGMDELYK
modifications: autocatalytic Met-Tyr-Gly chromophore / autocatalytic Met-Tyr-Gly chromophore
stoichiometry N (mNeptune681_Q159C): 2

B3: mNeptune681_Q159L (other)
chain: VSKGEELIKEDMHMKLYMEGTVNNHHFKCTSEGEGKPYEGTQTQRIKVVEGGPLPFAFDILATCFMYGSKTFINHTQGIPDFFKQSFPEGFTWERVTTYEDGGVLTATQDTSLQDGCLIYNVKIRGVNFPSNGPVMQKKTLGWEANTEMLYPADGGLRGHNLMALKLVGGGHLICNLKTTYRSKKPAKNLKMPGVYFVDRRLERIKEADNETYVEQHEVAVARYCDLPSKLGHKLNGMDELYK
modifications: autocatalytic Met-Tyr-Gly chromophore / autocatalytic Met-Tyr-Gly chromophore
stoichiometry N (mNeptune681_Q159L): 2

B5: mNeptune681_Q159M (other)
chain: VSKGEELIKEDMHMKLYMEGTVNNHHFKCTSEGEGKPYEGTQTQRIKVVEGGPLPFAFDILATCFMYGSKTFINHTQGIPDFFKQSFPEGFTWERVTTYEDGGVLTATQDTSLQDGCLIYNVKIRGVNFPSNGPVMQKKTLGWEANTEMLYPADGGLRGHNMMALKLVGGGHLICNLKTTYRSKKPAKNLKMPGVYFVDRRLERIKEADNETYVEQHEVAVARYCDLPSKLGHKLNGMDELYK
modifications: autocatalytic Met-Tyr-Gly chromophore / autocatalytic Met-Tyr-Gly chromophore
stoichiometry N (mNeptune681_Q159M): 2

B7: mNeptune681_Q159I (other)
chain: VSKGEELIKEDMHMKLYMEGTVNNHHFKCTSEGEGKPYEGTQTQRIKVVEGGPLPFAFDILATCFMYGSKTFINHTQGIPDFFKQSFPEGFTWERVTTYEDGGVLTATQDTSLQDGCLIYNVKIRGVNFPSNGPVMQKKTLGWEANTEMLYPADGGLRGHNIMALKLVGGGHLICNLKTTYRSKKPAKNLKMPGVYFVDRRLERIKEADNETYVEQHEVAVARYCDLPSKLGHKLNGMDELYK
modifications: autocatalytic Met-Tyr-Gly chromophore / autocatalytic Met-Tyr-Gly chromophore
stoichiometry N (mNeptune681_Q159I): 2
